Measured values published in US20050176933A1.

Molecular target: GST-HAb18GE (a fusion of the extracellular domain of hepatoma-associated antigen HAb18G with GST) (human) (UniProt P35613)
Assay: indirect ELISA on coated GST-HAb18GE; positive control; mean ± S

Chain of UniProt P35613 (P35613 138-325): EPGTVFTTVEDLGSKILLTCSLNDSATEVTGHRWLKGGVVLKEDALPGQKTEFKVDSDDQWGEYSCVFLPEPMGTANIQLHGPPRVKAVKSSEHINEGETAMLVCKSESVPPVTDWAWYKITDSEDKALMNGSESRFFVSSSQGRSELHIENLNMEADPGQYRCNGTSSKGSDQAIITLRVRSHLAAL

B1: murine anti-human hepatoma McAb HAb18 (antibody, mouse IgG1, V domains shown)
VH: EVKLEESGGGLVQPGGSMKLSCVASGFTFSDAWMDWVRQSPEKGLEWVAEIRSKANNHAPYYTESVKGRFTISRDDSKSIIYLQMNNLRAEDTGIYYCTRDSTATHWGQGTLVTVSS
VL: SIVMTQTPTFLVVSAGDRVTITCKASQSVINDVAWYQQKPGQSPKLLIFYASNRNTGVPDRFTGSGYGTDFTFTISTVQAEDLAVYFCQQDYSPPFTFGSGTKLEIK
modifications: HRP-labelled in the competitive ELISAs
B1 showed an A450 (Indirect ELISA) of 1.02 A450.
